Assay [1] addresses human CD45 on PBMCs (human) (UniProt P08575). In words: flow cytometry on human PBMCs, detected with anti-PEG/HL647 label. (Flow cytometry measures light scatter and fluorescence of single cells or particles in a stream.)
For assay [2], the target named is anti-pHIS antibody (clone J099B12, Biolegend), fluorescently labeled with AlexaFluor 488. In words: flow cytometry competition, release format: soluble pHIS added after anti-pHIS antibody was bound to pHIS-conjugated particles.
The target is the same in assay [3]. Kind of assay: flow cytometry competition, inhibition format: soluble pHIS preincubated with anti-pHIS antibody before pHIS-conjugated particles.
For assay [4], the target named is anti-pHIS/CD3 TAC (tetrameric antibody complex of anti-pHIS antibody and anti-CD3 antibody). Kind of assay: cell-based or functional assay.
Assay [5] addresses human CD3 cell surface antigen on PBMCs (human) (UniProt P07766). Kind of assay: flow cytometry on human PBMCs, detected with anti-PEG/HL647 label.
UniProt P07766, sequence (P07766 23-207): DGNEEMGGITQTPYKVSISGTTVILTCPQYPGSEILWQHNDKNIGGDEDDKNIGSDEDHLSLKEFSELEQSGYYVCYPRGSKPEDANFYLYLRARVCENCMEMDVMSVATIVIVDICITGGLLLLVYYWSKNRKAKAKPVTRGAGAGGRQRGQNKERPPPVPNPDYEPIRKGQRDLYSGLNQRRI
The target is the same in assay [6]. Kind of assay: flow cytometry on human PBMCs, detected with rat anti-mouse PE.

UniProt P08575, sequence (P08575 26-1306): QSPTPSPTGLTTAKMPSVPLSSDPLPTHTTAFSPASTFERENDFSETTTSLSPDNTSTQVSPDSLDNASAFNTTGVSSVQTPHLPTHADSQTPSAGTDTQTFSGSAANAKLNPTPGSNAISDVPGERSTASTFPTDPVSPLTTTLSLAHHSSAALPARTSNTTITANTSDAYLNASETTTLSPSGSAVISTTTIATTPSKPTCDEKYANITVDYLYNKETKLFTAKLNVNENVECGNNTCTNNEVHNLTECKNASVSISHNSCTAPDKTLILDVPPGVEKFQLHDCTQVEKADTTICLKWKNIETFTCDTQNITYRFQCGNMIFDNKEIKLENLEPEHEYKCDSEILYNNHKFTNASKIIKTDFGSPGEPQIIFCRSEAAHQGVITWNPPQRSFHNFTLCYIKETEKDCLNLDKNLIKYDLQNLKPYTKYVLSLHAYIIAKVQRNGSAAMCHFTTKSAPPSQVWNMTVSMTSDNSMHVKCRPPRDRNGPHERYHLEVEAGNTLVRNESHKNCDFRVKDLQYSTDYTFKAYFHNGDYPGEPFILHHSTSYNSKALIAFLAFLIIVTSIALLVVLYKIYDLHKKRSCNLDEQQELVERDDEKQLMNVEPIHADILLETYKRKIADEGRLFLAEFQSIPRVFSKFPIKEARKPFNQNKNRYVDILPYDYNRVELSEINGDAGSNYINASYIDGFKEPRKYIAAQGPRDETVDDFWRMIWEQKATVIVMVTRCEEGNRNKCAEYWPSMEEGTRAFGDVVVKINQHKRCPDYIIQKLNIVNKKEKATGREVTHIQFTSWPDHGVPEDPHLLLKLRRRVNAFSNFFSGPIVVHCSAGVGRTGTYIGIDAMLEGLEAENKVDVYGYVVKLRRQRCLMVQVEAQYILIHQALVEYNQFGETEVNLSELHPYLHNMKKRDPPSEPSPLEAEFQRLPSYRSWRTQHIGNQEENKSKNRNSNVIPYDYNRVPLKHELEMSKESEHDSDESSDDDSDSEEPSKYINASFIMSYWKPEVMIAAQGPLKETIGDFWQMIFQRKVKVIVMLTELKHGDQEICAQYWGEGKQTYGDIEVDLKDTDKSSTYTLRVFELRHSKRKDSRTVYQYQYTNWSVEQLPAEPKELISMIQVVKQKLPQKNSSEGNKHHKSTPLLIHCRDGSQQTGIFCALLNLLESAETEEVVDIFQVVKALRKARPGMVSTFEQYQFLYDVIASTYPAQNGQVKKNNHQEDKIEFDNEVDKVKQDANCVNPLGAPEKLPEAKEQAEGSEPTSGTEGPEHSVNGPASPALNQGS

In assay [1], “CD45 antibody (clone MEM-28) PEGylated with 30 kDa PEG” gave a percent of cells with a positive signal greater than 96%. The IC50 is the point on the concentration scale where inhibition reaches its midpoint. A higher IC50 goes with a need for much substance. In assay [2], “soluble pHIS (polyhistidine) peptide, 0.84 kDa” returned an IC50 of 237 µM. In assay [3], this substance yielded an IC50 of 1.9 µM. Moreover, in assay [4], the % Rel (release efficiency), average, n = 2 is 69.3% and the particle release efficiency was 72%. “CD3 antibody (clone UCHT1) PEGylated with 30 kDa PEG” returned a percent of cells with a positive signal in assay [5] of 83.4%. In assay [6], CD3 antibody (clone UCHT1) registered a percent of lymphocytes with a CD3+ signal of 87.8%.

These data come from patent US20190178879A1.
